The results in this text go back to paper PMC4470865 (Current biology : CB, 2015).

What is called Kd is the constant that tells how readily two partners part at equilibrium. Read a high Kd as weaker binding.

In this test the target is actin filaments (Alexa488 label on 3-20% of the actin in the microscopy assays). Briefly: co-sedimentation.

B1: unlabeled Tm1A (recombinant AS-Tm1A, non-muscle Drosophila tropomyosin isoform Tm1A) (natural protein)
chain: MASMTTSIPQGTLLDVLKKKMRQTKEEMEKYKDECEEFHKRLQLEVVRREEAESEVAALNRRIQLLEEDLERSEERLGSATAKLSEASQAADESERIRKALENRTNMEDDKVALLENQLAQAKLIAEEADKKYEEVARKLVLMEQDLERSEEKVELSESKIVELEEELRVVGNNLKSLEVSEEKATQKEETFETQIKVLDHSLKEAEARAEFAERSVQKLQKEVDRLEDDLLNVRGKNKLLQEEMEATLHDIQNM
With B1, the affinity, expressed as Kd, was 0.046 µM.
